Measured values from doi:10.1101/2025.04.09.647959.
Read-outs that look alike come from different tables or passages of the source.

Key:
[1] = biological target: T1, human CD40 ligand (hCD40L) (Homo sapiens, UniProt P29965 113-261); assay: BLI
[2] = biological target: T1, human CD40 ligand (hCD40L); assay: BLI; remark: listed apart in the source

T1 sequence (P29965 113-261): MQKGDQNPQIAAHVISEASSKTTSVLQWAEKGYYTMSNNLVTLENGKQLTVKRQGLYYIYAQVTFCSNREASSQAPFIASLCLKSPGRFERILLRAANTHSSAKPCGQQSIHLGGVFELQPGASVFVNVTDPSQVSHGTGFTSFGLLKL

Binder | binding result [1] | binding result [2]
hCD40L-4 (LNA-T, 2'F-C) (XNA, all T are LNA-T; all C are 2'F-C; A and G ribo) DNA: GGGAGGAGGAAGCGGACGATGAACAAGTTGAAAAGGAATTTAAACGAATTAACAACAGACGACACGCCCGA | binds | 
hCD40L-1 (LNA-T, 2'F-C) (XNA, all T are LNA-T; all C are 2'F-C; A and G ribo) DNA: GGGAGGAGGAAGCGGAAAAAGCAGGTGTGAAAAGGACGTCAAACGACGTGACACACAGACGACACGCCCGA |  | binds
